IntAct's records for PubMed 25910212

B1: Keratin, type II cytoskeletal 6A (Homo sapiens), P02538 (parent)
chain: MASTSTTIRSHSSSRRGFSANSARLPGVSRSGFSSVSVSRSRGSGGLGGACGGAGFGSRSLYGLGGSKRISIGGGSCAISGGYGSRAGGSYGFGGAGSGFGFGGGAGIGFGLGGGAGLAGGFGGPGFPVCPPGGIQEVTVNQSLLTPLNLQIDPTIQRVRAEEREQIKTLNNKFASFIDKVRFLEQQNKVLETKWTLLQEQGTKTVRQNLEPLFEQYINNLRRQLDSIVGERGRLDSELRGMQDLVEDFKNKYEDEINKRTAAENEFVTLKKDVDAAYMNKVELQAKADTLTDEINFLRALYDAELSQMQTHISDTSVVLSMDNNRNLDLDSIIAEVKAQYEEIAQRSRAEAESWYQTKYEELQVTAGRHGDDLRNTKQEIAEINRMIQRLRSEIDHVKKQCANLQAAIADAEQRGEMALKDAKNKLEGLEDALQKAKQDLARLLKEYQELMNVKLALDVEIATYRKLLEGEECRLNGEGVGQVNISVVQSTVSSGYGGASGVGSGLGLGGGSSYSYGSGLGVGGGFSSSSGRAIGGGLSSVGGGSSTIKYTTTSSSSRKSYKH
partner: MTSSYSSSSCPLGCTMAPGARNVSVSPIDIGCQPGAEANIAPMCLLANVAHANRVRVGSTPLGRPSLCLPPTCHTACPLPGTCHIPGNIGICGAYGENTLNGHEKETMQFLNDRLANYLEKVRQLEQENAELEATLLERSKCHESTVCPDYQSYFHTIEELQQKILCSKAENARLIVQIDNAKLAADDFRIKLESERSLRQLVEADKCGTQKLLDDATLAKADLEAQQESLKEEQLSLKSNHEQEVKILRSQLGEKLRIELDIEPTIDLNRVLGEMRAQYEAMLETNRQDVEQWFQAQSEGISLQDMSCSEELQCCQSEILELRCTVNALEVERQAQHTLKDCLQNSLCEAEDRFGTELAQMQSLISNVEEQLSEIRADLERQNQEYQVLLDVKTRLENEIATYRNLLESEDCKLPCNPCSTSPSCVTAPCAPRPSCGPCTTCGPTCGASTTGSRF

Variants of: B1
Conditions: with krt38_human KRT38, O76015

Effect of a mutation on the interaction, with no effect:
MASTSTTIRSHSSSRRGFSANSARLPGVSRSGFSSVSVSRSRGSGGLGGACGGAGFGSRSLYGLGGSKRISIGGGSCAISGGYGSRAGGSYGFGGAGSGFGFGGGAGIGFGLGGGAGLAGGFGGPGFPVCPPGGIQEVTVNQSLLTPLNLQIDPTIQRVRAEEREQIKTLKNKFASFIDKVRFLEQQNKVLETKWTLLQEQGTKTVRQNLEPLFEQYINNLRRQLDSIVGERGRLDSELRGMQDLVEDFKNKYEDEINKRTAAENEFVTLKKDVDAAYMNKVELQAKADTLTDEINFLRALYDAELSQMQTHISDTSVVLSMDNNRNLDLDSIIAEVKAQYEEIAQRSRAEAESWYQTKYEELQVTAGRHGDDLRNTKQEIAEINRMIQRLRSEIDHVKKQCANLQAAIADAEQRGEMALKDAKNKLEGLEDALQKAKQDLARLLKEYQELMNVKLALDVEIATYRKLLEGEECRLNGEGVGQVNISVVQSTVSSGYGGASGVGSGLGLGGGSSYSYGSGLGVGGGFSSSSGRAIGGGLSSVGGGSSTIKYTTTSSSSRKSYKH [N171K]
MASTSTTIRSHSSSRRGFSANSARLPGVSRSGFSSVSVSRSRGSGGLGGACGGAGFGSRSLYGLGGSKRISIGGGSCAISGGYGSRAGGSYGFGGAGSGFGFGGGAGIGFGLGGGAGLAGGFGGPGFPVCPPGGIQEVTVNQSLLTPLNLQIDPTIQRVRAEEREQIKTLNNKFASFIDKVRFLEQQNKVLETKWTLLQEQGTKTVRQNLEPLFEQYINNLRRQLDSIVGERGRLDSELRGMQDLVEDFKNKYEDEINKRTAAENEFVTLKKDVDAAYMNKVELQAKADTLTDEINFLRALYDAELSQMQTHISDTSVVLSMDNNRNLDLDSIIAEVKAQYEEIAQRSRAEAESWYQTKYEELQVTAGRHGDDLRNTKQEIAEINRMIQRLRSEIDHVKKQCANLQAAIADAEQRGEMALKDAKNKLEGLEDALQKAKQDLARLLKEYQELMNVKLALDVEIPTYRKLLEGEECRLNGEGVGQVNISVVQSTVSSGYGGASGVGSGLGLGGGSSYSYGSGLGVGGGFSSSSGRAIGGGLSSVGGGSSTIKYTTTSSSSRKSYKH [A463P]
MASTSTTIRSHSSSRRGFSANSARLPGVSRSGFSSVSVSRSRGSGGLGGACGGAGFGSRSLYGLGGSKRISIGGGSCAISGGYGSRAGGSYGFGGAGSGFGFGGGAGIGFGLGGGAGLAGGFGGPGFPVCPPGGIQEVTVNQSLLTPLNLQIDPTIQRVRAEEREQIKTLNNKVASFIDKVRFLEQQNKVLETKWTLLQEQGTKTVRQNLEPLFEQYINNLRRQLDSIVGERGRLDSELRGMQDLVEDFKNKYEDEINKRTAAENEFVTLKKDVDAAYMNKVELQAKADTLTDEINFLRALYDAELSQMQTHISDTSVVLSMDNNRNLDLDSIIAEVKAQYEEIAQRSRAEAESWYQTKYEELQVTAGRHGDDLRNTKQEIAEINRMIQRLRSEIDHVKKQCANLQAAIADAEQRGEMALKDAKNKLEGLEDALQKAKQDLARLLKEYQELMNVKLALDVEIATYRKLLEGEECRLNGEGVGQVNISVVQSTVSSGYGGASGVGSGLGLGGGSSYSYGSGLGVGGGFSSSSGRAIGGGLSSVGGGSSTIKYTTTSSSSRKSYKH [F174V]
MASTSTTIRSHSSSRRGFSANSARLPGVSRSGFSSVSVSRSRGSGGLGGACGGAGFGSRSLYGLGGSKRISIGGGSCAISGGYGSRAGGSYGFGGAGSGFGFGGGAGIGFGLGGGAGLAGGFGGPGFPVCPPGGIQEVTVNQSLLTPLNLQIDPTIQRVRAEEREQIKTLNNKFASFIDKVRFLEQQNKVLETKWTLLQEQGTKTVRQNLEPLFEQYINNLRRQLDSIVGERGRLDSELRGMQDLVEDFKNKYEDEINKRTAAENEFVTLKKDVDAAYMNKVELQAKADTLTDEINFLRALYDAELSQMQTHISDTSVVLSMDNNRNLDLDSIIAEVKAQYEEIAQRSRAEAESWYQTKYEELQVTAGRHGDDLRNTKQEIAEINRMIQRLRSEIDHVKKQCANLQAAIADAEQRGEMALKDAKNKLEGLEDALQKAKQDLARLLKEYQELMNVKLALDVESATYRKLLEGEECRLNGEGVGQVNISVVQSTVSSGYGGASGVGSGLGLGGGSSYSYGSGLGVGGGFSSSSGRAIGGGLSSVGGGSSTIKYTTTSSSSRKSYKH [I462S]

Variants of: B1
Conditions: with krt38_human KRT38, O76015
Remark: another data set of the same source

Effect of a mutation on the interaction, with no effect:
MASTSTTIRSHSSSRRGFSASSARLPGVSRSGFSSVSVSRSRGSGGLGGACGGAGFGSRSLYGLGGSKRISIGGGSCAISGGYGSRAGGSYGFGGAGSGFGFGGGAGIGFGLGGGAGLAGGFGGPGFPVCPPGGIQEVTVNQSLLTPLNLQIDPTIQRVRAEEREQIKTLNNKFASFIDKVRFLEQQNKVLETKWTLLQEQGTKTVRQNLEPLFEQYINNLRRQLDSIVGERGRLDSELRGMQDLVEDFKNKYEDEINKRTAAENEFVTLKKDVDAAYMNKVELQAKADTLTDEINFLRALYDAELSQMQTHISDTSVVLSMDNNRNLDLDSIIAEVKAQYEEIAQRSRAEAESWYQTKYEELQVTAGRHGDDLRNTKQEIAEINRMIQRLRSEIDHVKKQCANLQAAIADAEQRGEMALKDAKNKLEGLEDALQKAKQDLARLLKEYQELMNVKLALDVEIATYRKLLEGEECRLNGEGVGQVNISVVQSTVSSGYGGASGVGSGLGLGGGSSYSYGSGLGVGGGFSSSSGRAIGGGLSSVGGGSSTIKYTTTSSSSRKSYKH [N21S]
MASTSTTIRSHSSSRRGFSANSARLPGVSRSGFSSVSVSRSRGSGGLGGACGGAGFGSRSLYGLGGSKRISIGGGSCAISGGYGSRAGGSYGFGGAGSGFGFGGGAGIGFGLGGGAGLAGGFGGPGFPVCPPGGIQEVTVNQSLLTPLNLQIDPTIQRVRAEEREQIKTLNNKFASFIDKVRFLEQQNKVLETKWTLLQEQGTKTVRQNLEPLFEQYINNLRRQLDSIVGERGRLDSELRGMQDLVEDFKNKYEDEINKRTAAENEFVTLKKDVDAAYMNKVELQAKADTLTDEINFLRALYDAELSQMQTHISDTSVVLSMDNNRNLDLDSIIAEVKAQYEEIAQRSRAEAESWYQTKYEELQVTAGRHGDDLRNTKQEIAEINRMIQRLRSEIDHVKKQCANLQAAIADAEQRGEMALKDAKNKLEGLEDALQKAKQDLARLLKEYQELMNVKLALDVEIATYRKLLEGEECRLNGEGVGQVNISVVQSTVSSGYGGASGVGSGLGLGGGSSYSYGSGLGVGGGFSSSSGRAIGGGLSSVGGGSSTIKYSTTSSSSRKSYKH [T552S]
MASTSTTIRSHSSSRRGFSANSARLPGVSRSGFSSVSVSRSRGSGGLGGACGGAGFGSRSLYGLGGSKRISIGGGSCAISGGYGSRAGGSYGFGGAGSGFGFGGGAGIGFGLGGGAGLAGGFGGPGFPVCPPGGIQEVTVNQSLLTPLNLQIDPTIQRVRAEEREQIKTLNNKFASFIDKVRFLEQQNKVLETKWTLLQEQGTKTVRQNLEPLFEQYINNLRRQLDSIVGERGRLDSELRGMQDLVEDLKNKYEDEINKRTAAENEFVTLKKDVDAAYMNKVELQAKADTLTDEINFLRALYDAELSQMQTHISDTSVVLSMDNNRNLDLDSIIAEVKAQYEEIAQRSRAEAESWYQTKYEELQVTAGRHGDDLRNTKQEIAEINRMIQRLRSEIDHVKKQCANLQAAIADAEQRGEMALKDAKNKLEGLEDALQKAKQDLARLLKEYQELMNVKLALDVEIATYRKLLEGEECRLNGEGVGQVNISVVQSTVSSGYGGASGVGSGLGLGGGSSYSYGSGLGVGGGFSSSSGRAIGGGLSSVGGGSSTIKYTTTSSSSRKSYKH [F249L]
